Tested on: Escherichia coli TOP10
Assay: shrunken log2 fold change of peptide-encoding DNA abundance (4.5 h post-induction vs induction); higher = less antimicrobial activity (less host growth inhibition)
Conditions: time post-induction: 4.5 h; library: site-saturation at positions 5, 18, 19, 20
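Note: peptides expressed intracellularly from a pBAD plasmid library in pooled LB shake-flask culture, induced with 0.3% L-arabinose, DNA abundance read by NGS, three biological replicates, DESeq2 with apeglm shrinkage.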

Row | Sequence | shrunken log2 fold change
1 | RRIRGRPPRLPRPRPRPPVRPRP | 0.859
2 | RRIRGRPPRLPRPRPRPFARPRP | 0.484
3 | RRIRFRPPRLPRPRPRPEGQPRP | 0.15
4 | RRIRCRPPRLPRPRPRPSDYPRP | -1.15
5 | RRIRKRPPRLPRPRPRPLYVPRP | 0.0738
6 | RRIRTRPPRLPRPRPRPLWGPRP | -0.0731
7 | RRIRPRPPRLPRPRPRPPFQPRP | 0.119
8 | RRIRARPPRLPRPRPRPHTRPRP | 0.0581
9 | RRIRARPPRLPRPRPRPDIAPRP | 0.668
10 | RRIRQRPPRLPRPRPRPSFIPRP | -0.807
11 | RRIRRRPPRLPRPRPRPNPAPRP | 0.643
12 | RRIRWRPPRLPRPRPRPCFLPRP | -0.462
13 | RRIRYRPPRLPRPRPRPPTFPRP | -0.457
14 | RRIRVRPPRLPRPRPRPYSGPRP | -0.00858
15 | RRIRKRPPRLPRPRPRPINIPRP | -0.0728
16 | RRIRFRPPRLPRPRPRPKPCPRP | 0.3
17 | RRIRVRPPRLPRPRPRPQYDPRP | -0.729
18 | RRIRQRPPRLPRPRPRPWHIPRP | -0.00133
19 | RRIRWRPPRLPRPRPRPFKWPRP | -0.223
20 | RRIRLRPPRLPRPRPRPQHVPRP | -0.316
21 | RRIRWRPPRLPRPRPRPNGHPRP | -0.0518
22 | RRIRHRPPRLPRPRPRPVRFPRP | 0.106

Row | Sequence | shrunken log2 fold change
23 | RRIRKRPPRLPRPRPRPRGCPRP | 0.128
24 | RRIRKRPPRLPRPRPRPKPTPRP | 0.7
25 | RRIRMRPPRLPRPRPRPVWYPRP | -0.0263
26 | RRIRQRPPRLPRPRPRPRQMPRP | 0.297
27 | RRIRQRPPRLPRPRPRPNTTPRP | 0.15
28 | RRIRDRPPRLPRPRPRPRFQPRP | 0.491
29 | RRIRRRPPRLPRPRPRPHKSPRP | -0.0141
30 | RRIRRRPPRLPRPRPRPCCEPRP | 0.122
31 | RRIRERPPRLPRPRPRPLGFPRP | -0.118
32 | RRIRHRPPRLPRPRPRPHFSPRP | 0.0854
33 | RRIRYRPPRLPRPRPRPSSRPRP | -0.0331
34 | RRIRDRPPRLPRPRPRPWPAPRP | 0.308
35 | RRIRPRPPRLPRPRPRPMNWPRP | -0.0482
36 | RRIRFRPPRLPRPRPRPSCAPRP | -0.22
37 | RRIRTRPPRLPRPRPRPCSSPRP | -0.0634
38 | RRIRNRPPRLPRPRPRPWILPRP | -0.146
39 | RRIRDRPPRLPRPRPRPQIAPRP | 0.0211
40 | RRIRWRPPRLPRPRPRPVGKPRP | 0.107
41 | RRIRHRPPRLPRPRPRPIPMPRP | -0.0582
42 | RRIRPRPPRLPRPRPRPPDMPRP | 0.507
43 | RRIRVRPPRLPRPRPRPKPMPRP | 0.131
44 | RRIRIRPPRLPRPRPRPCQEPRP | -0.119

Row | Sequence | shrunken log2 fold change
45 | RRIRCRPPRLPRPRPRPYMGPRP | -0.017
46 | RRIRARPPRLPRPRPRPESFPRP | 0.807
47 | RRIRNRPPRLPRPRPRPPAGPRP | 0.637
48 | RRIRGRPPRLPRPRPRPWYQPRP | 0.0417
49 | RRIRGRPPRLPRPRPRPMCRPRP | 0.393
50 | RRIRARPPRLPRPRPRPDGPPRP | 0.455
51 | RRIRCRPPRLPRPRPRPECLPRP | -0.109
52 | RRIRPRPPRLPRPRPRPIPPPRP | -0.0888
53 | RRIRDRPPRLPRPRPRPIYAPRP | -0.288
54 | RRIRCRPPRLPRPRPRPYWHPRP | -1.53
55 | RRIRYRPPRLPRPRPRPHKYPRP | -1.08
56 | RRIRARPPRLPRPRPRPKAVPRP | 0.706
57 | RRIRSRPPRLPRPRPRPPYCPRP | -0.031
58 | RRIRARPPRLPRPRPRPQSWPRP | 0.322
59 | RRIRHRPPRLPRPRPRPMTGPRP | -0.218
60 | RRIRYRPPRLPRPRPRPQVDPRP | -0.205
61 | RRIRMRPPRLPRPRPRPAQGPRP | 3.7
62 | RRIRQRPPRLPRPRPRPNKSPRP | -0.202
63 | RRIRSRPPRLPRPRPRPSDPPRP | -0.397
64 | RRIRKRPPRLPRPRPRPREPPRP | 1.39
65 | RRIRKRPPRLPRPRPRPICFPRP | 0.272
66 | RRIRMRPPRLPRPRPRPVASPRP | 0.58

Row | Sequence | shrunken log2 fold change
67 | RRIRMRPPRLPRPRPRPDFVPRP | 0.00674
68 | RRIRARPPRLPRPRPRPHTEPRP | -0.0331
69 | RRIRKRPPRLPRPRPRPGMEPRP | 0.0527
70 | RRIRLRPPRLPRPRPRPRFIPRP | -0.243
71 | RRIRYRPPRLPRPRPRPNKPPRP | -0.18
72 | RRIRFRPPRLPRPRPRPMYMPRP | -0.183
73 | RRIRERPPRLPRPRPRPEANPRP | -0.00156
74 | RRIRTRPPRLPRPRPRPVCIPRP | -0.195
75 | RRIRCRPPRLPRPRPRPKVDPRP | 0.0328
76 | RRIRYRPPRLPRPRPRPVRLPRP | -0.0236
77 | RRIRLRPPRLPRPRPRPKVTPRP | -0.00182
78 | RRIRCRPPRLPRPRPRPENTPRP | -0.297
79 | RRIRPRPPRLPRPRPRPQNEPRP | -0.183
80 | RRIRVRPPRLPRPRPRPSWAPRP | 0.0598
81 | RRIRIRPPRLPRPRPRPNCRPRP | -0.0156
82 | RRIRARPPRLPRPRPRPGKAPRP | 0.266
83 | RRIRWRPPRLPRPRPRPGPNPRP | 0.194
84 | RRIRVRPPRLPRPRPRPDRQPRP | -0.215
85 | RRIRGRPPRLPRPRPRPPWYPRP | 0.26
86 | RRIRTRPPRLPRPRPRPYSAPRP | -0.206
87 | RRIRVRPPRLPRPRPRPVAMPRP | 0.0876
88 | RRIRQRPPRLPRPRPRPDPFPRP | -0.401

Row | Sequence | shrunken log2 fold change
89 | RRIRCRPPRLPRPRPRPPETPRP | 0.105
90 | RRIRNRPPRLPRPRPRPGAIPRP | 0.0755
91 | RRIRGRPPRLPRPRPRPMEAPRP | 1.27
92 | RRIRLRPPRLPRPRPRPTNVPRP | -0.165
93 | RRIRGRPPRLPRPRPRPFNYPRP | -0.419
94 | RRIRQRPPRLPRPRPRPMPIPRP | 0.0245
95 | RRIRKRPPRLPRPRPRPHHEPRP | -0.0045
96 | RRIRDRPPRLPRPRPRPREVPRP | 0.454
97 | RRIRPRPPRLPRPRPRPMTTPRP | -0.104
98 | RRIRLRPPRLPRPRPRPCYLPRP | -0.856
99 | RRIRMRPPRLPRPRPRPSHGPRP | 0.385
100 | RRIRLRPPRLPRPRPRPHMMPRP | -0.135
101 | RRIRARPPRLPRPRPRPTMSPRP | 0.159
102 | RRIRTRPPRLPRPRPRPGQTPRP | -0.0115
103 | RRIRQRPPRLPRPRPRPQWMPRP | -0.494
104 | RRIRPRPPRLPRPRPRPMIMPRP | -0.0291
105 | RRIRSRPPRLPRPRPRPHDRPRP | -0.138
106 | RRIRVRPPRLPRPRPRPEMAPRP | 0.311
107 | RRIRIRPPRLPRPRPRPLWVPRP | 0.0248
108 | RRIRARPPRLPRPRPRPQHQPRP | 0.698
109 | RRIRMRPPRLPRPRPRPVCHPRP | 0.224
